Laboratory results as given in publication PMC10889554, “An Unusual Two-Domain Thyropin from Tick Saliva: NMR Solution Structure and Highly Selective Inhibition of Cysteine Cathepsins Modulated by Glycosaminoglycans” (International Journal of Molecular Sciences, 2024).

Legend:
Assay in all cases: enzyme inhibition kinetics (fluorogenic peptide substrate activity assay); inhibitor preincubated with protease 15 min, 37 °C; IC50 from residual velocities, Ki by the Cheng-Prusoff equation; 50 mM sodium acetate pH 5.5, 0.1% polyethylene glycol 1500, 2.5 mM dithiothreitol (cathepsins L, K, V, B, F, C and papain; 50 mM NaCl for cathepsin C)
Settings in all cases: both partners purified
[1] = biological target: T1, human cathepsin L (human)
T1 construct: source: Pichia pastoris expression system, as described previously [12,56,57]

[2] = biological target: T2, human cathepsin F (human, UniProt Q9UBX1 271-484)
T2 construct: source: bought: Enzo Life Sciences
T2 sequence (looked up): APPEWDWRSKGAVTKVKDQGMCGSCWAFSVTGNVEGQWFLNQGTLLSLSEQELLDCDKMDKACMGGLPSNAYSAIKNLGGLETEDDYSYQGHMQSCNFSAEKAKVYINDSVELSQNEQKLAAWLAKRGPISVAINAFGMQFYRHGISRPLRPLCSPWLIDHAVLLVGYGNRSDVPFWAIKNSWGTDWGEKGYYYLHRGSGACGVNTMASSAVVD

[3] = biological target: T3, human cathepsin K (human, UniProt P43235 115-329)
T3 construct: source: Pichia pastoris expression system, as described previously [12,56,57]
T3 sequence (looked up): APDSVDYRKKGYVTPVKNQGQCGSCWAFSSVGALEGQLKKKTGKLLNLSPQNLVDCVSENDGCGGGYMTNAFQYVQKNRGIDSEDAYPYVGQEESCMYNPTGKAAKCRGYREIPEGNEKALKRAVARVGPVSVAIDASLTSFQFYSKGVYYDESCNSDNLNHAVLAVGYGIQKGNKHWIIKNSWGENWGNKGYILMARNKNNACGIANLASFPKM

[4] = biological target: T4, human cathepsin V (human, UniProt O60911 114-334)
T4 construct: source: Pichia pastoris expression system, as described previously [12,56,57]

[5] = biological target: T5, Carica papaya papain (Carica papaya, UniProt P00784 134-345)
T5 construct: source: bought: Merck
T5 sequence (looked up): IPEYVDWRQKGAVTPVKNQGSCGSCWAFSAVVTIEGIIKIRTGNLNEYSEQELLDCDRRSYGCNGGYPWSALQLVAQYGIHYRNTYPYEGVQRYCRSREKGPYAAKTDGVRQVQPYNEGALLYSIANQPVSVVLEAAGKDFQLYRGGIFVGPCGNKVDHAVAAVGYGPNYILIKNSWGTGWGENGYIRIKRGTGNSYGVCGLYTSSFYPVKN

T4 sequence (O60911 114-334): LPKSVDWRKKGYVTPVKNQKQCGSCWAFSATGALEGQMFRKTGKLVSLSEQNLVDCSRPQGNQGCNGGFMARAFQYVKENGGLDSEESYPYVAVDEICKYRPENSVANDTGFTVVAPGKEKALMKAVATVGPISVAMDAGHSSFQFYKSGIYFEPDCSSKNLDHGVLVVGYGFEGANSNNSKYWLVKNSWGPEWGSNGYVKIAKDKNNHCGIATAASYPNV

B1: IrThy-Nd, recombinant N-terminal Tg1 domain of IrThy (domain or fragment)
chain: SNAASVPTRVANHGASRPLSDCEQRKQREERNTGPLAIHIECNPDGSYKPMQCFGNPDQPRRMCACYDQEYDQIKAPSRQLKSCK
Ki [1]: 179 nM
Ki [2]: 207 nM
Ki [3]: 43.7 nM
Ki [4]: 27.2 nM
Ki [5]: 153 nM
